# Tested on: HEK293FT cells transfected with TF library
# Experiment: Screening of TF condensates based on fluorescent puncta
# Assay type: cell-based
# Settings: Figure 1B numerical data; TF library screen, one value per transcriptional factor
# Outline: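 Condensate formation is scored as Alexa 488-labelled puncta after Flag- or GAL4-tag immunostaining of fixed HEK293FT cells expressing individual TFs, with a 12 h glucose-free or glucose-containing culture preceding fixation.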
row,Molecule,Z score of condensed fraction
1,"SUV39H1 (protein, UniProt O43463 1-412, looked up) Histone-lysine …: MAENLKGCSVCCKSSWNQLQDLCRLAKLSCPALGISKRNLYDFEVEYLCDYKKIREQEYYLVKWRGYPDSESTWEPRQNLKCVRILKQFHKDLERELLRRHHRSKTPRHLDPSLANYLVQKAKQRRALRRWEQELNAKRSHLGRITVENEVDLDGPPRAFVYINEYRVGEGITLNQVAVGCECQDCLWAPTGGCCPGASLHKFAYNDQGQVRLRAGLPIYECNSRCRCGYDCPNRVVQKGIRYDLCIFRTDDGRGWGVRTLEKIRKNSFVMEYVGEIITSEEAERRGQIYDRQGATYLFDLDYVEDVYTVDAAYYGNISHFVNHSCDPNLQVYNVFIDNLDERLPRIAFFATRTIRAGEELTFDYNMQVDPVDMESTRMDSNFGLAGLPGSPKKRVRIECKCGTESCRKYLF",-0.8281
2,"SP110 (protein, UniProt Q9HB58 1-689, looked up) Sp110 nuclear body protein: MFTMTRAMEEALFQHFMHQKLGIAYAIHKPFPFFEGLLDNSIITKRMYMESLEACRNLIPVSRVVHNILTQLERTFNLSLLVTLFSQINLREYPNLVTIYRSFKRVGASYEWQSRDTPILLEAPTGLAEGSSLHTPLALPPPQPPQPSCSPCAPRVSEPGTSSQQSDEILSESPSPSDPVLPLPALIQEGRSTSVTNDKLTSKMNAEEDSEEMPSLLTSTVQVASDNLIPQIRDKEDPQEMPHSPLGSMPEIRDNSPEPNDPEEPQEVSSTPSDKKGKKRKRCIWSTPKRRHKKKSLPGGTASSRHGIQKKLKRVDQVPQKKDDSTCNSTVETRAQKARTECARKSRSEEIIDGTSEMNEGKRSQKTPSTPRRVTQGAASPGHGIQEKLQVVDKVTQRKDDSTWNSEVMMRVQKARTKCARKSRLKEKKKEKDICSSSKRRFQKNIHRRGKPKSDTVDFHCSKLPVTCGEAKGILYKKKMKHGSSVKCIRNEDGTWLTPNEFEVEGKGRNAKNWKRNIRCEGMTLGELLKRKNSDECEVCCQGGQLLCCGTCPRVFHEDCHIPPVEAKRMLWSCTFCRMKRSSGSQQCHHVSKTLERQMQPQDQLIRDYGEPFQEAMWLDLVKERLITEMYTVAWFVRDMRLMFRNHKTFYKASDFGQVGLDLEAEFEKDLKDVLGFHEANDGGFWTLP",-0.422
3,"BHLHA9 (protein, UniProt Q7RTU4 1-235, looked up) Class A basic …: MLRGAPGLGLTARKGAEDSAEDLGGPCPEPGGDSGVLGANGASCSRGEAEEPAGRRRARPVRSKARRMAANVRERKRILDYNEAFNALRRALRHDLGGKRLSKIATLRRAIHRIAALSLVLRASPAPRGPCGHLECHGPAARGDTGDTGASPPPPAGPSLARPDAARPSVPSAPRCASCPPHAPLARPSAVAEGPGLAQASGGSWRRCPGASSAGPPPWPRGYLRSAPGMGHPRS",-1.033
4,"SPZ1 (protein, UniProt Q9BXG8 1-430, looked up) Spermatogenic leucine zipper …: MASSAKSAEMPTISKTVNPTPDPHQEYLDPRITIALFEIGSHSPSSWGSLPFLKNSSHQVTEQQTAQKFNNLLKEIKDILKNMAGFEEKITEAKELFEETNITEDVSAHKENIRGLDKINEMLSTNLPVSLAPEKEDNEKKQEMILETNITEDVSAHKENIRGLDKINEMLSTNLPVSLAPEKEDNEKKQQMIMENQNSENTAQVFARDLVNRLEEKKVLNETQQSQEKAKNRLNVQEETMKIRNNMEQLLQEAEHWSKQHTELSKLIKSYQKSQKDISETLGNNGVGFQTQPNNEVSAKHELEEQVKKLSHDTYSLQLMAALLENECQILQQRVEILKELHHQKQGTLQEKPIQINYKQDKKNQKPSEAKKVEMYKQNKQAMKGTFWKKDRSCRSLDVCLNKKACNTQFNIHVARKALRGKMRSASSLR",0.06851
5,"SRY (protein, UniProt Q05738 1-392, looked up) Sex-determining region Y …: MEGHVKRPMNAFMVWSRGERHKLAQQNPSMQNTEISKQLGCRWKSLTEAEKRPFFQEAQRLKILHREKYPNYKYQPHRRAKVSQRSGILQPAVASTKLYNLLQWDRNPHAITYRQDWSRAAHLYSKNQQSFYWQPVDIPTGHLQQQQQQQQQQQFHNHHQQQQQFYDHHQQQQQQQQQQQQFHDHHQQKQQFHDHHQQQQQFHDHHHHHQEQQFHDHHQQQQQFHDHQQQQQQQQQQQFHDHHQQKQQFHDHHHHQQQQQFHDHQQQQQQFHDHQQQQHQFHDHPQQKQQFHDHPQQQQQFHDHHHQQQQKQQFHDHHQQKQQFHDHHQQKQQFHDHHQQQQQFHDHHQQQQQQQQQQQQQFHDQQLTYLLTADITGWKGIKHCTGPDPEPF",-0.331
6,"STAT5B (protein, UniProt P51692 1-787, looked up) Signal transducer and …: MAVWIQAQQLQGEALHQMQALYGQHFPIEVRHYLSQWIESQAWDSVDLDNPQENIKATQLLEGLVQELQKKAEHQVGEDGFLLKIKLGHYATQLQNTYDRCPMELVRCIRHILYNEQRLVREANNGSSPAGSLADAMSQKHLQINQTFEELRLVTQDTENELKKLQQTQEYFIIQYQESLRIQAQFGPLAQLSPQERLSRETALQQKQVSLEAWLQREAQTLQQYRVELAEKHQKTLQLLRKQQTIILDDELIQWKRRQQLAGNGGPPEGSLDVLQSWCEKLAEIIWQNRQQIRRAEHLCQQLPIPGPVEEMLAEVNATITDIISALVTSTFIIEKQPPQVLKTQTKFAATVRLLVGGKLNVHMNPPQVKATIISEQQAKSLLKNENTRNDYSGEILNNCCVMEYHQATGTLSAHFRNMSLKRIKRSDRRGAESVTEEKFTILFESQFSVGGNELVFQVKTLSLPVVVIVHGSQDNNATATVLWDNAFAEPGRVPFAVPDKVLWPQLCEALNMKFKAEVQSNRGLTKENLVFLAQKLFNNSSSHLEDYSGLSVSWSQFNRENLPGRNYTFWQWFDGVMEVLKKHLKPHWNDGAILGFVNKQQAHDLLINKPDGTFLLRFSDSEIGGITIAWKFDSQERMFWNLMPFTTRDFSIRSLADRLGDLNYLIYVFPDRPKDEVYSKYYTPVPCESATAKAVDGYVKPQIKQVVPEFVNASADAGGGSATYMDQAPSPAVCPQAHYNMYPQNPDSVLDTDGDFDLEDTMDVARRVEELLGRPMDSQWIPHAQS",2.437
7,"SP100 (protein, UniProt P23497 2-879, looked up) Nuclear autoantigen Sp-100: AGGGGDLSTRRLNECISPVANEMNHLPAHSHDLQRMFTEDQGVDDRLLYDIVFKHFKRNKVEISNAIKKTFPFLEGLRDRDLITNKMFEDSQDSCRNLVPVQRVVYNVLSELEKTFNLPVLEALFSDVNMQEYPDLIHIYKGFENVIHDKLPLQESEEEEREERSGLQLSLEQGTGENSFRSLTWPPSGSPSHAGTTPPENGLSEHPCETEQINAKRKDTTSDKDDSLGSQQTNEQCAQKAEPTESCEQIAVQVNNGDAGREMPCPLPCDEESPEAELHNHGIQINSCSVRLVDIKKEKPFSNSKVECQAQARTHHNQASDIIVISSEDSEGSTDVDEPLEVFISAPRSEPVINNDNPLESNDEKEGQEATCSRPQIVPEPMDFRKLSTFRESFKKRVIGQDHDFSESSEEEAPAEASSGALRSKHGEKAPMTSRSTSTWRIPSRKRRFSSSDFSDLSNGEELQETCSSSLRRGSGSQPQEPENKKCSCVMCFPKGVPRSQEARTESSQASDMMDTMDVENNSTLEKHSGKRRKKRRHRSKVNGLQRGRKKDRPRKHLTLNNKVQKKRWQQRGRKANTRPLKRRRKRGPRIPKDENINFKQSELPVTCGEVKGTLYKERFKQGTSKKCIQSEDKKWFTPREFEIEGDRGASKNWKLSIRCGGYTLKVLMENKFLPEPPSTRKKRILESHNNTLVDPCEEHKKKNPDASVKFSEFLKKCSETWKTIFAKEKGKFEDMAKADKAHYEREMKTYIPPKGEKKKKFKDPNAPKRPPLAFFLFCSEYRPKIKGEHPGLSIDDVVKKLAGMWNNTAAADKQFYEKKAAKLKEKYKKDIAAYRAKGKPNSAKKRVVKAEKSKKKKEEEEDEEDEQEEENEEDDDK",-0.9758
8,"SSX5 (protein, UniProt O60225 1-188, looked up) Protein SSX5: MNGDDAFVRRPRVGSQIPEKMQKAFDDIAKYFSEKEWEKMKASEKIIYVYMKRKYEAMTKLGFKATLPPFMRNKRVADFQGNDFDNDPNRGNQVEHPQMTFGRLQGIFPKITPEKPAEEGNDSKGVPEASGPQNNGKQLRPSGKLNTSEKVNKTSGPKRGKHAWTHRVRERKQLVIYEEISDPQEDDE",0.09353
9,"SSX3 (protein, UniProt Q99909 1-188, looked up) Protein SSX3: MNGDDTFARRPTVGAQIPEKIQKAFDDIAKYFSKEEWEKMKVSEKIVYVYMKRKYEAMTKLGFKAILPSFMRNKRVTDFQGNDFDNDPNRGNQVQRPQMTFGRLQGIFPKIMPKKPAEEGNVSKEVPEASGPQNDGKQLCPPGKPTTSEKINMISGPKRGEHAWTHRLRERKQLVIYEEISDPEEDDE",0.2674
10,"STAT5A (protein, UniProt P42229 1-794, looked up) Signal transducer and …: MAGWIQAQQLQGDALRQMQVLYGQHFPIEVRHYLAQWIESQPWDAIDLDNPQDRAQATQLLEGLVQELQKKAEHQVGEDGFLLKIKLGHYATQLQKTYDRCPLELVRCIRHILYNEQRLVREANNCSSPAGILVDAMSQKHLQINQTFEELRLVTQDTENELKKLQQTQEYFIIQYQESLRIQAQFAQLAQLSPQERLSRETALQQKQVSLEAWLQREAQTLQQYRVELAEKHQKTLQLLRKQQTIILDDELIQWKRRQQLAGNGGPPEGSLDVLQSWCEKLAEIIWQNRQQIRRAEHLCQQLPIPGPVEEMLAEVNATITDIISALVTSTFIIEKQPPQVLKTQTKFAATVRLLVGGKLNVHMNPPQVKATIISEQQAKSLLKNENTRNECSGEILNNCCVMEYHQATGTLSAHFRNMSLKRIKRADRRGAESVTEEKFTVLFESQFSVGSNELVFQVKTLSLPVVVIVHGSQDHNATATVLWDNAFAEPGRVPFAVPDKVLWPQLCEALNMKFKAEVQSNRGLTKENLVFLAQKLFNNSSSHLEDYSGLSVSWSQFNRENLPGWNYTFWQWFDGVMEVLKKHHKPHWNDGAILGFVNKQQAHDLLINKPDGTFLLRFSDSEIGGITIAWKFDSPERNLWNLKPFTTRDFSIRSLADRLGDLSYLIYVFPDRPKDEVFSKYYTPVLAKAVDGYVKPQIKQVVPEFVNASADAGGSSATYMDQAPSPAVCPQAPYNMYPQNPDHVLDQDGEFDLDETMDVARHVEELLRRPMDSLDSRLSPPAGLFTSARGSLS",-0.6398
11,"SP6 (protein, UniProt Q3SY56 1-376, looked up) Transcription factor Sp6: MLTAVCGSLGSQHTEAPHASPPRLDLQPLQTYQGHTSPEAGDYPSPLQPGELQSLPLGPEVDFSQGYELPGASSRVTCEDLESDSPLAPGPFSKLLQPDMSHHYESWFRPTHPGAEDGSWWDLHPGTSWMDLPHTQGALTSPGHPGALQAGLGGYVGDHQLCAPPPHPHAHHLLPAAGGQHLLGPPDGAKALEVAAPESQGLDSSLDGAARPKGSRRSVPRSSGQTVCRCPNCLEAERLGAPCGPDGGKKKHLHNCHIPGCGKAYAKTSHLKAHLRWHSGDRPFVCNWLFCGKRFTRSDELQRHLQTHTGTKKFPCAVCSRVFMRSDHLAKHMKTHEGAKEEAAGAASGEGKAGGAVEPPGGKGKREAEGSVAPSN",2.974

# Source: publication PMC11574045, “A cofactor-induced repressive type of transcription factor condensation can be induced by synthetic peptides to suppress tumorigenesis” (The EMBO Journal, 2024)
